Assay: soluble on expression in E. coli; label from the status in PepcDB or PDB records

Row | Sequence | soluble on expression in E. coli
1 | AAEKTGKCRVVTTTGTADWSVRESFNNYLEGPIANGAAYKYHGGIEVRDGVETTGTKSAREFTWPVLGSEEGAVKLGGGVHWTGHNHYSGDDESQAPDNFILDLDFSNPTVKFDGNEGTLLVDFKSREFVDTKTVADFLTGTQAELATITFDEPIDLTQENVTVTGQTKLTATGVDVMGTFYPEGEALAPITLNLTN | not soluble
2 | AAIRHITTGTYIARIREEYQQTEVKPELQPMKEALARMTDRAEALIAFVTEQKDQELLDFQARRLVEMTAHAVFGHLLMLAANDDDSFRQSAEVYLRYGQAEQEKIDSYVRAFRPEELTFYSRCSRPE | soluble
3 | AATTVNGGTVHFKGEVVNAACAVDAGSVDQTVQLGQVRTASLAQEGATSSAVGFNIQLNDCDTNVASKAAVAFLGTAIDAGHTNVLALQSSAAGSATNVGVQILDRTGAALTLDGATFSSETTLNNGTNTIPFQARYFATGAATPGAANADATFKVQYQGGGGGGAATTVNGGTVHFKGEVVNA | soluble
4 | ACDYTCGSACYSSSDVSTAQAAGYKLHEDGETVGSNSYPHKYNNYEGFDFSVSSPYYEWPILSSGDVYSGGSPGADRVVFNENNQLAGVITHTGASGNNFVECT | soluble
5 | ADGNNIKAPIETAVKPPHRTEDNIRDEARRNRSNAVNPFSAKYVPFNAAPGSTESYSLDEIVYRSRSGGLLDVEHDMEALKRFDGAYWRDLFDSRVGKSTWPYGSGVWSKKEWVLPEIDDDDIVSAFEGNSNLFWAERFGKQFLGMNDLWVKHCGISHTGSFKDLGMTVLVSQVNRLRKMKRPVVGVGCASTGDTSAALSAYCASAGIPSIVFLPANKISMAQLVQPIANGAFVLSIDTDFDGCMKLIREITAELPIYLANSLNSLRLEGQKTAAIEILQQFDWQVPDWVIVPGGNLGNIYAFYKGFKMCQELGLVDRIPRMVCAQAANANPLYLHYKSGWKDFKPMTASTTFASAIQIGDPVSIDRAVYALKKCNGIVEEATEEELMDAMAQADSTGMFICPHTGVALTALFKLRNQGVIAPTDRTVVVSTAHGLKFTQSKIDYHSNAIPDMACRFSNPPVDVKADFGAVMDVLKSYLGSNTLTS | soluble
6 | ADTFNLAKDIHSRILSIDTHTDTPLWFKNGYSVGLRKDNMVSIPKMEEGKLDAQFLAAFIWQGKRDDASSQKAVESTTRLIQSIYDEVEQYKDFCGIALTEEDLVRLKNEGKKAFFIGIENGYAIGKDLKNIKKYKQMGVNYITLCHSYDNDICHSSTHTEDATQGLTQFGREVVKEMNRLGIMIDISHASEGTFWDVIKYSAQPIIASHSSSKALCDHDRNLTDEQLRALAKNGGVAQLCLLDAYINKKTKAASICDAVEHLDHMIKVAGIDHVGIGTDFDGGGGLQGCRGDNDLINLTIKMIEKGYTEEDLRKIWGGNLLRVMKQVQEAPLLSSKKRR | not soluble
7 | ADTPGEATPPPRKKKDIRDYNDADMARLLEQWEKDDDIEEGDLPEHKRPSAPIDFSKLDPGKPESILKMTKKGKTLMMFVTVSGNPTEKETEEITSLWQGSLFNANYDVQRFIVGSDRAIFMLRDGSYAWEIKDFLVSQDRCAEVTLEGQMYPGKGGGSKEKNKTKPEKAKKKEGDPKPRASKEDNRAGSRREDL | soluble
8 | AGIKVFGHPASIATRRVLIALHEKNLDFELVHVELKDGEHKKEPFLSRNPFGQVPAFEDGDLKLFESRAITQYIAHRYENQGTNLLQTDSKNISQYAIMAIGMQVEDHQFDPVASKLAFEQIFKSIYGLTTDEAVVAEEEAKLAKVLDVYEARLKEFKYLAGETFTLTDLHHIPAIQYLLGTPTKKLFTERPRVNEWVAEITKRPASEKVQ | soluble
9 | AGSNGAQEKKYIVGFKQTMSTMSAAKKKDVISEKGGKVQKQFKYVDAASATLNEKAVKELKKDPSVAYVEEDHVAHAY | soluble
10 | AHHHHHHGSELFFITSNDGKVREAKKFLEPLGINVIKKPLEYPEIQADTLEDVVVFGLNWLKDKVDKPFIIEDSGLFIEALNGFPGVYSAYVYKTIGLDGILKLMEGIENRKAYFKSVIGFYDGEIHLFVGEVRGRISNEKRGLHGFGYDPIFVPDGFDKTFAEMSTEEKNSVSHRGKALKEFYRWMKENLKK | soluble
11 | AHHHHHHGSGVEEHKKEAPKTFKFGVITVSDKGAKGEREDKSGPLIIEELSKLGEHVYYKIVPDDKIEVLIALFEAIKSGADVVVTTGGTGITRRDITIESIKPLFDKELSFGEVFRAKSYEEVGYATVLTRATAGIIRGQERIVVVFSLPGSVNAVKTGLEIIKSEVFHILKHARE | soluble
12 | AHHHHHHGSGVPIGEIIPRKEIELENLYGKKIAIDALNAIYQFLSTIRQKDGTPLMDSKGRITSHLSGLFYRTINLMEAGIKPVYVFDGEPPEFKKKELEKRREAREEAEEKWREALEKGEIEEARKYAQRATRVNEMLIEDAKKLLELMGIPIVQAPSEGEAQAAYMAAKGSVYASASQDYDSLLFGAPRLVRNLTITGKRKLPGKNVYVEIKPELIILEEVLKELKLTREKLIELAILVGTDYNPGGIKGIGLKKALEIVRHSKDPLAKFQKQSDVDLYAIKEFFLNPPVTDNYNLVWRDPDEEGILKFLCDEHDFSEERVKNGLERLKKAIKSGKQSTLESWFKR | soluble
13 | AHHHHHHGSIDDLVERMRKGDRRAVARLITLVENDEKKAREIIKRIYPLTGNAYIVGITGPPGSGKSTLVDKLVKEARKEGLIVGVIAVDPTSPFTGGALLGDRIRMQDHATDPGVFIRSMATRGSLGGLAKATNDAIKILDAYGCDIIFVETVGVGQVEVDIVKTADTVVLVTVPGLGDDIQAIKAGLMEIADIFVLNKADREGADATYFELSLTLDLESEKWEKLGWRPPIVETVATLGKGIKELWEQIKRHREFLEKSGKLEEKKRLRVEEEIKTIVSDMIAKKVEVSIKAGNLEDILEKVMKKELDPYSAASLIMEKIIGGGKSV | soluble
14 | AHHHHHHGSIRASKRALSVEYAIRDVVLPARELEKKGIKVIRLNIGDPVKFDFQPPEHMKEAYCKAIKEGHNYYGDSEGLPELRKAIVEREKRKNGVDITPDDVRVTAAVTEALQLIFGALLDPGDEILVPGPSYPPYTGLVKFYGGKPVEYRTIEEEDWQPDIDDIRKKITDRTKAIAVINPNNPTGALYDKKTLEEILNIAGEYEIPVISDEIYDLMTYEGEHISPGSLTKDVPVIVMNGLSKVYFATGWRLGYMYFVDPENKLSEVREAIDRLARIRLCPNTPAQFAAIAGLTGPMDYLKEYMKKLKERRDYIYKRLNEIPGISTTKPQGAFYIFPKIEVGPWKNDKEFVLDVLHNAHVLFVHGSGFGEYGAGHFRAVFLPPIEILEEAMDRFEKFMKERLKE | soluble
15 | AHHHHHHGSLHLKEKLKGTTTVGLVCKEGVVLAADTRASLGNIIYAKNVTKIHKIDEHLAIAGAGDVGDILNLVRLLKAEANLYKSTVGKEMSVKALATLLANILNGSKYFPYLGWFLVGGYDEKPRLFSVDMVGGITEDNYAAAGSGMEFAYSILDSEYREEMSVNDGIKLAVKAINVAIKRDVFTGDGLLVVTITKDGYKEYRGAELEKMLK | not soluble
16 | AHHHHHHGSNRKLDEFLGSNDPPATKEENQKVKKKQRLRATNLDEFLPEDHINFFKNLRIGSKKIARKKIEEL | not soluble
17 | AHHHHHHGSPKIEPFEKYTERYEEWFERNKFAYLSELNALKSLLPTRECVEVGIGSGRFAAPLGIKMGVEPSKKMAEIARKRGIRVIEGVAENLPFEDNSLDCILMVTTICFVDDPEKAIKEAYRVLKPGGYIVIGFVDKESLIGREYEKRKDKSVFYRDARFFSAREIMELLERNGFKIDGVVQTLFKKLDEIRDVEPVEEGYGRGSFVVIRAKKVV | soluble
18 | AHHHHHHGSRVLVTTWGNPFQWEPITYEYRGIKVKSRNTLPILVKTLEPERILILVADTMANYYDSGKNKPEIEEKSFSSYSEVVEDTKERILWHIKEEVIEELREEDPELAKKIENMLKDERITIEVLPGVGVFGNITVEGEMLDFYYYATYKLAEWLPVQNNLEVYLDLTHGINFMPTFTYRALRNLLGLLAYLYNVKFEIVNSEPYPLGVSQEIREDTILHIREIGEGVVRPRPQYSPVEGKLYWNAFISSVANGFPLVFASFYPNIRDVEDYLNKKLEEFLVGIEVGEREDGKPYVKREKALDRSFKNASKLYYALRVFNTKFQNYPKKEVPIEEIMEISKIFESLPRIGIILERQVEWLRNLVYGRLWYENGEQKIKKGLLEIIKDKKDKRKEAEALKKGKTISLAEAAKLTRIFSPSGERIETIESPNVVRNFIAHSGFEYNIVYVKYDRLSDRLYFFYKDKEKAANLAYEALLYRGEKE | soluble
19 | AHHHHHHGSVIEEEGKVEILPRDVDLSKYVDSVEVDVDNFGDYHELRKELREKKMRFIDANVFIYAILKPKRELNEKELKIKRVSKEIFNRINGGEEVVTTVVHLSEVANVLEDAANLSFAISFLKDVLIKGNVIVEEVSDRDYMESVLLAEEKGVSINDALAYILMKRKGIEEIYTFDRHFENLDVRIVNS | soluble
20 | AHHHHHHGSVKIGVIGLQGDVSEHIEATKRALERLGIEGSVIWVKRPEQLNQIDGVIIPGGESTTISRLMQRTGLFDPLKKMIEDGLPAMGTCAGLIMLAKEVIGATPEQKFLEVLDVKVNRNAYGRQVDSFEAPVKLAFDDKPFIGVFIRAPRIVELLSDKVKPLAWLEDRVVGVEQGNVIGLEFHPELTDDTRIHEYFLKKIV | soluble
21 | AHHHHHHGSVNIMDEIIVVTTPTIPGYKIIEVKGIARGGIVMATHLGRDILALLRNIKGGEVKEYTQMMAEAREEALRRMIEHAKKLGANAVVNFRFATSNVGGGMAEVYAYGTAVVVEREK | not soluble
22 | AIAADKEAAFDDAVEERVINEEYKIWKKNTPFLYDLVMTHALEWPSLTAQWLPDVTRPDGKDFSIHRLVLGTHTSDEQNHLVIASVQLPNDDAQFDASHYDSEKGEFGGFGSVSGKIEIEIKINHEGEVNRARYMPQNPCIIATKTPSCDVLVFDYTKHPSKPDPSGECNPDLRLRGHQKEGYGLSWNPNLSGNLLSASDDHTICLWDISAVPKEGKVVDAKTIFTGHTAVVEDVSWHLLHESLFGSVADDQKLMIWDTRSNNTSKPSHSVDAHTAEVNCLSFNPYSEFILATGSADKTVALWDLRNLKLKLHSFESHKDEIFQVQWSPHNETILASSGTDRRLNVWDLSKIGEEQSPEDAEDGPPELLFIHGGHTAKISDFSWNPNEPWVICSVSEDNIMQVWQMAENIYNDEDTEGSVDPEGQGS | soluble
23 | AIAAQKISEAHEHIAKAEKYLKTSFMKWKPDYDSAASEYAKAAVAFKNAKQLEQAKDAYLQEAEAHANNRSLFHAAKAFEQAGMMLKDLQRMPEAVQYIEKASVMYVENGTPDTAAMALDRAGKLMEPLDLSKAVHLYQQAAAVFENEERLRQAAELIGKASRLLVRQQKFDEAAASLQKEKSMYKEMENYPTCYKKCIAQVLVQLHRADYVAAQKCVRESYSIPGFSGSEDCAALEDLLQAYDEQDEEQLLRVCRSPLVTYMDNDYAKLAISLKVPGGGGGKKKPSASASAQPQEEEDDEYAGGLC | soluble
24 | AIAETEIHVPVGSPTIRKFQIFVDEHNVTEGAMKLIKELRPGWDPNLIRTKLFTDGTTNKLVGCYVEDCVEDVVLVRVYGNKTELIVDRDNELKSFQVLHANGCAPRLYCTFQNGICYEFMQGRALDTQDVRDPVLLRLIAREMARIHAIHAHNGCIPKPNLWIKMRKYFSLVATEFTEQASNIRIQQEVPSQEVLEQEMMWMKEHLSQLGSPVVLCHNDLLCKNIIHNAKEGHVRFIDYEYSSYNYQAFDIGNHFNEFAGMSEPDYNLYPSREMQLDWLQTYLQAYKLFTKKGEDVSERELETLYVQVNKFALASHFFWGFWALIQAKYSTIEFDFLGYAVLRFNQYFKTKPAVMALEIPK | soluble

From the DeepSol protein solubility set
